# Non-standard residues stand in square brackets, D forms with d. Residues, ends and D or L forms follow the SMILES beside them. No end group written: not given here. β3hI = CC[C@H](C)[C@H](N)CC(=O)O; β3hE = N[C@@H](CCC(=O)O)CC(=O)O; β3hA = C[C@H](N)CC(=O)O; Flu = fluorescein
# B1: α3β-UNCSOS-Flu (peptide)
# peptide: Ac-FEG[β3hI]YRL[β3hE]LLK[β3hA]EEANK(Flu)-NH2
# modifications: not fully specified (residue 3); printed as Ac-FEG*iYRLeLLKaEEANK(Flu)-NH2
# B2: α-HBSSOS (fluorescein-tagged) (peptide)
# peptide: FEGIYRLELLKAEEAN
# modifications: not fully specified; also: hydrogen bond surrogate macrocycle at N-terminus, fluorescein tag, site and linker not given here
# Key:
# HRas^(1-166) = target: T1, HRas^(1-166) (Homo sapiens, UniProt P01112); assay: In vitro pulldown binding assay with 6×His-tagged HRas 1-166 and fluorescein-tagged SOS peptides; details: fluorescein-tagged peptides, 4° C., 1 hour
# T1 construct: 6×His-tagged HRas WT 1-166; made in house
# Procedure: Recombinantly purified 6×His-tagged HRas WT 1-166 was incubated with Ni-NTA sepharose beads, generating recombinant Ras on solid support. FITC labeled HBS peptides were incubated in the presence of recombinant HRas-6×His/Ni-NTA Sepharose complex at 4° C. for 1 hour. Beads complexes were pelleted and washed 5× with protein buffer (20 mM Tris-HCl pH 7.6, 50 mM NaCl, 4 mM EDTA, 10 mM MgCl2), resuspended in reducing buffer (126 mM Tris-HCL pH 6.8, 20% glycerol, 4% SDS, 0.02% bromophenol blue, 2.5% β-mercaptoethanol), boiled for 10 minutes at 95° C., and subjected to SDS-PAGE with an acrylamide percentage of 20% to allow for sufficient resolution of the HBS helices. SDS-PAGE gels were imaged using an ImageQuant™ LAS 4000 biomolecular imager (GE Healthcare, Piscataway, N.J., USA). Quantification of fluorescence by FITC-HBS helices in gel was determined by manufacturer provided ImageQuant™ TL software. Raw values were normalized to total input and plotted on a semilog graph with GraphPad Prism version 6.00 for OSX (GraphPad Software, La Jolla Calif. USA, www.graphpad.com).
# The binding affinity of the designed compounds for Ras was determined using in vitro pulldown assays with recombinantly purified 6×His-tagged HRas^(1-166) and fluorescein-tagged SOS peptides (FIGS. 8 and 9, and Table 2). […]
# [1] = target: 6×His-tagged HRas WT 1-166 (UniProt P01112); assay: in vitro pull-down: fluorescein-tagged peptide on 6×His-HRas 1-166 / Ni-NTA beads, in-gel fluorescence
molecule,measurement,setting,value
"CC[C@H](C)[C@@H](CC(=O)N[C@@H](Cc1ccc(O)cc1)C(=O)N[C@@H](CCCNC(=N)N)C(=O)N[C@@H](CC(C)C)C(=O)N[C@@H](CCC(=O)O)CC(=O)N[C@@H](CC(C)C)C(=O)N[C@@H](CC(C)C)C(=O)N[C@@H](CCCCN)C(=O)N[C@@H](C)CC(=O)N[C@@H](CCC(=O)O)C(=O)N[C@@H](CCC(=O)O)C(=O)N[C@@H](C)C(=O)N[C@@H](CC(N)=O)C(N)=O)NC(=O)CNC(=O)[C@H](CCC(=O)O)NC(=O)[C@H](Cc1ccccc1)NC(C)=O [α3β-UNCSOS, Ac-FEGiYRLeLLKaEEAN-NH2] (Ac-FEG[β3hI]YRL[β3hE]LLK[β3hA]EEAN-NH2)",Kd,HRas^(1-166),30.6 ± 12 µM
B1,fold weaker affinity than α3β-HBSSOS,[1],136 fold
B2,Kd,[1],7.75 µM
